This is an account of results in patent publication US20240132573A1.

Among the targets are Plasma kallikrein (UniProt P03952); Plasmin (UniProt P00747); Activated protein C (UniProt P04070); Human αFXIIa (Human) (UniProt P00748); Thrombin (UniProt P00734).
Test in all cases: cell-based or functional assay
For a further experiment, the target named is T1, Human βFXIIa (Human) (UniProt P00748).
T1 sequence (looked up): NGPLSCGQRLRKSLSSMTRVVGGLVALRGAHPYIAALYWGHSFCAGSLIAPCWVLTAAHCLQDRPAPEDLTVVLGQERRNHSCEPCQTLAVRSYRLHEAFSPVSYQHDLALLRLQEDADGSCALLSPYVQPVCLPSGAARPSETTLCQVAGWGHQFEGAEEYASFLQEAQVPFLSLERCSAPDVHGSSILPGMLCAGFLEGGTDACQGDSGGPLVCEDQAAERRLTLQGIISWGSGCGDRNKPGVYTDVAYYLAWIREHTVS

Sequence of Plasma kallikrein (P03952 20-638 limits assumed): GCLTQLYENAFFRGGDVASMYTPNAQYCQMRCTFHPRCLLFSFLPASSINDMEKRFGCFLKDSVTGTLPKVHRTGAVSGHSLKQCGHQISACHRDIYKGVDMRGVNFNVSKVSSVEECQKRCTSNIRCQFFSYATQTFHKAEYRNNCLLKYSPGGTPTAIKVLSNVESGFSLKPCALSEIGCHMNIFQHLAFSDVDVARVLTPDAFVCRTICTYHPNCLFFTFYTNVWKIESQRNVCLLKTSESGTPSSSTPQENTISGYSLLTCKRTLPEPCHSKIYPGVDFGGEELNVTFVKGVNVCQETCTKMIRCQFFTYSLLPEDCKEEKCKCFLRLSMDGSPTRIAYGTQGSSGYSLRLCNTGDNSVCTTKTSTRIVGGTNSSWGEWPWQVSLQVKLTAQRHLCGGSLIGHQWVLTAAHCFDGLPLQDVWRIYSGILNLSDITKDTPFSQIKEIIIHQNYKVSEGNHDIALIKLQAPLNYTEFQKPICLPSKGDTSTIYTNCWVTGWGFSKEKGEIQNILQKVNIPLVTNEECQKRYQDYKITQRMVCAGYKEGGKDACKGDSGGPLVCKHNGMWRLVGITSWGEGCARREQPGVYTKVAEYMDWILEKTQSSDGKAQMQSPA
Sequence of Activated protein C (P04070 43-461): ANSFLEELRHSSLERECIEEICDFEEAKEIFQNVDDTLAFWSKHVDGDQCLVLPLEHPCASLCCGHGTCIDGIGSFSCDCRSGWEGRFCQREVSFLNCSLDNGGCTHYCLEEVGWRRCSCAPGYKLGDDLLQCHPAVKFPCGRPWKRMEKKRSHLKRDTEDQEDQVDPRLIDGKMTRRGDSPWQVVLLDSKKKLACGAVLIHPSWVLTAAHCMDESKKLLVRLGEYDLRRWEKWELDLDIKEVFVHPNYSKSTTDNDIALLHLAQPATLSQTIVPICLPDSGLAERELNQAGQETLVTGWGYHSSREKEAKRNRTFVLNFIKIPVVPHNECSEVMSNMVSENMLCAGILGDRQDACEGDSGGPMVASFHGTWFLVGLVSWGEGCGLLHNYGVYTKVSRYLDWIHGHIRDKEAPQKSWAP
Sequence of Plasmin (P00747 97-810 limits assumed): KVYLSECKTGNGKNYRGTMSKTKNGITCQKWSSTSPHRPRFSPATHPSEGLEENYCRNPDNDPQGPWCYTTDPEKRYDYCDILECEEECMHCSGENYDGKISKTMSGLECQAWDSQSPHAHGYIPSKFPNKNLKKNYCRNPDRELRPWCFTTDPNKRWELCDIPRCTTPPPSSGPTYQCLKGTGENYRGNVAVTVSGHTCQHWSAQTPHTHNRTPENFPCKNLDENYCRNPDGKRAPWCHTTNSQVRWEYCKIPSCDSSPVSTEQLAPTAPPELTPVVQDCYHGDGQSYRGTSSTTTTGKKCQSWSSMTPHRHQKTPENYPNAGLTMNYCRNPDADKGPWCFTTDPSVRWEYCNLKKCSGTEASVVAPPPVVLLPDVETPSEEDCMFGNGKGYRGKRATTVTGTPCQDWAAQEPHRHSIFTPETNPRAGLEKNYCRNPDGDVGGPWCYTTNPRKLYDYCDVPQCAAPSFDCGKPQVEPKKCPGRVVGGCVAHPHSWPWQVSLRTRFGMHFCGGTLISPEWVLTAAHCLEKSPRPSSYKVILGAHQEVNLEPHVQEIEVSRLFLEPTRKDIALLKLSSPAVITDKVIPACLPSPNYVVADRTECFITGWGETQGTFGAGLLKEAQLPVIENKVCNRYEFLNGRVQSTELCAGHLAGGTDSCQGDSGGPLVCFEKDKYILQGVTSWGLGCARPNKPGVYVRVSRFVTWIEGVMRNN

As for “α1-Antitrypsin variant SFNRox* (from UniProt P01009 25-418)”, the percentage inhibition, average (L2120 conversion) in the experiment with Plasma kallikrein worked out at 94%; with Human αFXIIa (Human) it was 5%; in the experiment with Human βFXIIa (Human), 3%. The substance further yielded a percentage inhibition, average (I1390 conversion) in the experiment with Plasmin of 3%. Besides, the percentage inhibition, average (S2366 conversion) in the experiment with Activated protein C was found to be 5%. Also, in the experiment with Thrombin, the percentage inhibition, average (I1140 conversion) was determined as 7%.
On to “α1-Antitrypsin variant SVTRox* (from UniProt P01009 25-418)”, for which the percentage inhibition, average (L2120 conversion) was found to be 99% with Plasma kallikrein, 47% in the experiment with Human αFXIIa (Human) and 39% with Human βFXIIa (Human). In the experiment with Plasmin, this substance had a percentage inhibition, average (I1390 conversion) of 97%. This substance also showed a percentage inhibition, average (S2366 conversion) in the experiment with Activated protein C of 49%. For the same substance, the percentage inhibition, average (I1140 conversion) with Thrombin is 7%.
Regarding “α1-Antitrypsin variant SMTR (from UniProt P01009 25-418)”, the percentage inhibition, average (L2120 conversion) in the experiment with Plasma kallikrein worked out at 98.5%; in the experiment with Human αFXIIa (Human) it was 88.5%; with Human βFXIIa (Human), 85%. Besides, in the experiment with Plasmin, the percentage inhibition, average (I1390 conversion) worked out at 94%. For the same substance, the percentage inhibition, average (S2366 conversion) with Activated protein C was 75%. The percentage inhibition, average (I1140 conversion) with Thrombin was 10.5%.
